Tests used:
AncSZ = assay: phosphorylation enrichment, bacterial display (enrichment ratio); higher = better substrate or ligand; peptides without Tyr show the background
EPHB1 = EPHB1 (UniProt P54762); assay: as above
EPHB2 = EPHB2 (UniProt P29323); assay: as above
FGFR1 = FGFR1 (UniProt P11362); assay: as above
FGFR3 = FGFR3 (UniProt P22607); assay: as above
Fer (mouse) = assay: as above
Fes = Fes (UniProt P07332); assay: as above
Fyn = Fyn (UniProt P06241); assay: as above
Hck = Hck (UniProt P08631); assay: as above
Jak2 = Jak2 (UniProt O60674); assay: as above
MERTK = MERTK (UniProt Q12866); assay: as above
c-Abl (mouse) = assay: as above
c-Src = assay: as above
Grb2 SH2 = Grb2 SH2 (UniProt P62993); assay: SH2 binding enrichment of the phosphorylated peptide, bacterial display (enrichment ratio); higher = better substrate or ligand; peptides without Tyr show the background
SHP2-C SH2 = assay: as above
c-Src SH2 = assay: as above
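For SH2 binding enrichment of the phosphorylated peptide, bacterial display in this document: peptide library displayed on the E. coli surface as eCPX fusions, selected cells deep-sequenced, score is each peptide's frequency after selection divided by its frequency in the input.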
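For phosphorylation enrichment, bacterial display in this document: 11-residue human phosphosite peptides and single-mutation variants displayed on the E. coli surface, counted by deep sequencing, each peptide's frequency after selection divided by its frequency in the unselected input library; frequency after pTyr selection over input frequency; kinase dosed for 20-30% of maximal phosphorylation in three min.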

Chain of Hck (P08631 whole entry, looked up): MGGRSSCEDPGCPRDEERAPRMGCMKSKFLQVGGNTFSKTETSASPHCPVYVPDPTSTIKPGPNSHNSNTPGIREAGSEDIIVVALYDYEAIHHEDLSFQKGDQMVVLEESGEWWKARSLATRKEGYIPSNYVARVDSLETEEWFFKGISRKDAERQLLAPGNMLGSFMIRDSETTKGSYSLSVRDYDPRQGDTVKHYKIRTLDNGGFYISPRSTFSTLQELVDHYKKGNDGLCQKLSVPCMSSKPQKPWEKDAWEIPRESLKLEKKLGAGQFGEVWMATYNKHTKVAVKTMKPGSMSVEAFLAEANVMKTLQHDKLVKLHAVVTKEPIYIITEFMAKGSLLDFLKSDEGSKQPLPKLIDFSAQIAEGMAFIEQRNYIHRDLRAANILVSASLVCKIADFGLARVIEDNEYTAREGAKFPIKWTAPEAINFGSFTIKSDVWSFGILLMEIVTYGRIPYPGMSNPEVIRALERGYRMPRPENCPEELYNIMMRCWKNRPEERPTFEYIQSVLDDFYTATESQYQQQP
Chain of Jak2 (O60674 whole entry, looked up): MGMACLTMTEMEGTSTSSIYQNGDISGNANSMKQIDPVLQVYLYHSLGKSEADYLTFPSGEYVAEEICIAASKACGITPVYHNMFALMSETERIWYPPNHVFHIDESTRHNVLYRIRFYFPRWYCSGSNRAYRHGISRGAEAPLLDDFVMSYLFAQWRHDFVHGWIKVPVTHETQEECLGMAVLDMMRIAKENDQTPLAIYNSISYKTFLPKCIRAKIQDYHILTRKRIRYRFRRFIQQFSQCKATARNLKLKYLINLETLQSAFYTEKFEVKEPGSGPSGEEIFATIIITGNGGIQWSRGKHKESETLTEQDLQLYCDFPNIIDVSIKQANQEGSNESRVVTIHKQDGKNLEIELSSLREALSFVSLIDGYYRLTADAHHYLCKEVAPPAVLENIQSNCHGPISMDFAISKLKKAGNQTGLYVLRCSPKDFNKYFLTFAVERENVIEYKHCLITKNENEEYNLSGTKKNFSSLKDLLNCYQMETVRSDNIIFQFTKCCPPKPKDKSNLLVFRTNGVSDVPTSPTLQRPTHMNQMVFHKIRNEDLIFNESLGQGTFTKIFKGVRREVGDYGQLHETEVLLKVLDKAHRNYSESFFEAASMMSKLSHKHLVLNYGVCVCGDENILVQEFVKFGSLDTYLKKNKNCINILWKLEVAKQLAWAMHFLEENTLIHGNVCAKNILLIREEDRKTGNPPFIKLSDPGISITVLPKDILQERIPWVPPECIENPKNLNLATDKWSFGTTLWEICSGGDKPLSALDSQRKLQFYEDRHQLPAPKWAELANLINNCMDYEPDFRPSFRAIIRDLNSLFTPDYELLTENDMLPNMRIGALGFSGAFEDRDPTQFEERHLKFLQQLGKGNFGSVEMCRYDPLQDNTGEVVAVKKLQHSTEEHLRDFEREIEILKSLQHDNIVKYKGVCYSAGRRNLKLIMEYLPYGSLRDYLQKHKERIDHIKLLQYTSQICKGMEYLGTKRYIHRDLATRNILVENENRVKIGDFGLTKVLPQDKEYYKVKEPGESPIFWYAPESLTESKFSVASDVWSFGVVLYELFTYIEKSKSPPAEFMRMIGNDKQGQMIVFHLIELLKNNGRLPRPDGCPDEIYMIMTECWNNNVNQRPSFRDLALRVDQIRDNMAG
Chain of EPHB2 (P29323 whole entry, looked up): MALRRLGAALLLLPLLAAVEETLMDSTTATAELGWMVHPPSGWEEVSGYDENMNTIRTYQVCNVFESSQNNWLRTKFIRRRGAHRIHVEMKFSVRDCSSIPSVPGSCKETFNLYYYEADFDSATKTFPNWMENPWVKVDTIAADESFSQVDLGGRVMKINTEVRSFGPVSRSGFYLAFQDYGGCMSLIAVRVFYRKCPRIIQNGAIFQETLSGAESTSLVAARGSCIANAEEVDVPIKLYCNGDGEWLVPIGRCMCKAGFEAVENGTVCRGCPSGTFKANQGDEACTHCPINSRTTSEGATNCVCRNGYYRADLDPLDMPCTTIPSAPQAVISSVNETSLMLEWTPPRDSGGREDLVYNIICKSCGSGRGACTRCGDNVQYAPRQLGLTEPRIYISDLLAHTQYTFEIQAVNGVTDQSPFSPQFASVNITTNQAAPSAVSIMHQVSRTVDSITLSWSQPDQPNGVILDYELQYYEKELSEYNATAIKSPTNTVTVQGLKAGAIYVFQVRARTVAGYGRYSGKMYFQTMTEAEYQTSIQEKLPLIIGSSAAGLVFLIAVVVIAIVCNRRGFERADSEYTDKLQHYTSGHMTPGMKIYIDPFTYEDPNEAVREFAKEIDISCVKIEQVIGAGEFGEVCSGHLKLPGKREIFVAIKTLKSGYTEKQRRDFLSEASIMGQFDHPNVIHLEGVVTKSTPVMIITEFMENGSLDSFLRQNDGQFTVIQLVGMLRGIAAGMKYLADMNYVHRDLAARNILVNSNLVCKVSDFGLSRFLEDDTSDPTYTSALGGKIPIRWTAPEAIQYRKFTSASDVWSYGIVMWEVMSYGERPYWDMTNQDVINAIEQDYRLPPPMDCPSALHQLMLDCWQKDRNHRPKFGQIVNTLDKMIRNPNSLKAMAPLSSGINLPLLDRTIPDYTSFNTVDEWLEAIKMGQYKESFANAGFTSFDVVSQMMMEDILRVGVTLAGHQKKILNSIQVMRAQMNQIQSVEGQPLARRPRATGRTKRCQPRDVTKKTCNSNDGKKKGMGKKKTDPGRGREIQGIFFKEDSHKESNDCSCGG
Chain of FGFR1 (P11362 whole entry, looked up): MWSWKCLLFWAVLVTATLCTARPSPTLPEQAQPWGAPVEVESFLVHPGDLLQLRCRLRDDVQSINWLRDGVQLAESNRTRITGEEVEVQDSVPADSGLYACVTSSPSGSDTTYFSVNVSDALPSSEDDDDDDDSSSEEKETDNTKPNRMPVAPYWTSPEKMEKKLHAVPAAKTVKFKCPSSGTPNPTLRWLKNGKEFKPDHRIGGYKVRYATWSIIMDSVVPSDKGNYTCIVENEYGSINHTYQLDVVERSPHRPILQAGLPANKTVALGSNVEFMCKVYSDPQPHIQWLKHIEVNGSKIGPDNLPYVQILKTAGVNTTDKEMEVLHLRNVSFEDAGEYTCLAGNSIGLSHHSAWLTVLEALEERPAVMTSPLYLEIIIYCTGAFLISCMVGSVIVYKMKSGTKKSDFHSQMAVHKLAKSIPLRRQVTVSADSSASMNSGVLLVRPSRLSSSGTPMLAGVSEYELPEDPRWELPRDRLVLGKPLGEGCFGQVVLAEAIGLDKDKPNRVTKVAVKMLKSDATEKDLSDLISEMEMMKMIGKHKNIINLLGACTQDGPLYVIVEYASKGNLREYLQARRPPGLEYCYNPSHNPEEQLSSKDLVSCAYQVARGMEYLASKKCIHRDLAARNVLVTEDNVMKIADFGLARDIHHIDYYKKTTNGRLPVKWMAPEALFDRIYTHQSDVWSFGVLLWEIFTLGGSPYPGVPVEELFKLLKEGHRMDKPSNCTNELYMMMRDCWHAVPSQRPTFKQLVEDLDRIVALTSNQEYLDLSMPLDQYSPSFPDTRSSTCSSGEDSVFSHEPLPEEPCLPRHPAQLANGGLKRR
Chain of MERTK (Q12866 whole entry, looked up): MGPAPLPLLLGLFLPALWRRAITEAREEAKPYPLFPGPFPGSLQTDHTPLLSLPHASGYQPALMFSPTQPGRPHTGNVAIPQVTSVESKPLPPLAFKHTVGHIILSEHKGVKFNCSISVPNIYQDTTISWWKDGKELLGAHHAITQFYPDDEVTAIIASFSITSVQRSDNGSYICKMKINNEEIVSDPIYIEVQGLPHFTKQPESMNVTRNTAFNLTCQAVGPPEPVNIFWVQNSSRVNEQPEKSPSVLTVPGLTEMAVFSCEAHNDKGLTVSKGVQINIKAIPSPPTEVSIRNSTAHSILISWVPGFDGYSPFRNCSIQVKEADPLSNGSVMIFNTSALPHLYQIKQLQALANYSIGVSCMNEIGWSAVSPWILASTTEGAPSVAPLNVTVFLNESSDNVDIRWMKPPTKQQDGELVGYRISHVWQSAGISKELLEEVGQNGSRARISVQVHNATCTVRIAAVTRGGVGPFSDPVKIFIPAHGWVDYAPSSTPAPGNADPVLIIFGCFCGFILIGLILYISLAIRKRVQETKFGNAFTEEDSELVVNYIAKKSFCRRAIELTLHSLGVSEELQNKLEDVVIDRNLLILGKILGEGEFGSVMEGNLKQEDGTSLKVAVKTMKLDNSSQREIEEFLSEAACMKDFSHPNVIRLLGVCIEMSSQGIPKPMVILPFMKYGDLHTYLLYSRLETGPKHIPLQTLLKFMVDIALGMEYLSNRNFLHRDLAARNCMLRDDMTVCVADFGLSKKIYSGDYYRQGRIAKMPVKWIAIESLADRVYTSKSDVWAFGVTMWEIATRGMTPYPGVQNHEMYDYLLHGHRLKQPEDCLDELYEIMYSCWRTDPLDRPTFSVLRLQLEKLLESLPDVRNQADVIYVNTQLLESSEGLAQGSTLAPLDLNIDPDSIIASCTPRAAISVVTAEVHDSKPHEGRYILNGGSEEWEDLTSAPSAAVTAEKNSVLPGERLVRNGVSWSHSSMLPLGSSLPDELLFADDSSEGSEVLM
Chain of Fyn (P06241 whole entry, looked up): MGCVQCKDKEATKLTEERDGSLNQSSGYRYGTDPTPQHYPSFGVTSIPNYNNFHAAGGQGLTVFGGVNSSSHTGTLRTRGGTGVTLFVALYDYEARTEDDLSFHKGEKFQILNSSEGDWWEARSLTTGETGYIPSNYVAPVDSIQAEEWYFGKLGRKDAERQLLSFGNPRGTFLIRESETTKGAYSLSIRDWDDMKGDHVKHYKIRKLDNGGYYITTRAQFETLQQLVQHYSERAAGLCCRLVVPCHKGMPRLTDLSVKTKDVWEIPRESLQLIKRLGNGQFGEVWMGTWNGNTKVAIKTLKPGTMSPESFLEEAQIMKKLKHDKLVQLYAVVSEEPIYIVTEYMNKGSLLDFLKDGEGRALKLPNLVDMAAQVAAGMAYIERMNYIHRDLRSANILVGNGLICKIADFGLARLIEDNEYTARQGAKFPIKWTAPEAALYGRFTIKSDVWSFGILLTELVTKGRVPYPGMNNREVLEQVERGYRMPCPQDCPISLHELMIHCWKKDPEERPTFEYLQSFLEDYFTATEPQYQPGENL

SH2 binding enrichment (Grb2 SH2) | SH2 binding enrichment (SHP2-C SH2) | SH2 binding enrichment (c-Src SH2) | Sequence | phosphorylation enrichment (AncSZ) | phosphorylation enrichment (EPHB1) | phosphorylation enrichment (EPHB2) | phosphorylation enrichment (FGFR1) | phosphorylation enrichment (FGFR3) | phosphorylation enrichment (Fer (mouse)) | phosphorylation enrichment (Fes) | phosphorylation enrichment (Fyn) | phosphorylation enrichment (Hck) | phosphorylation enrichment (Jak2) | phosphorylation enrichment (MERTK) | phosphorylation enrichment (c-Abl (mouse)) | phosphorylation enrichment (c-Src)
0.88 | 0.806 | 0.688 | RDSQIYAVDFE [MRPS34_Y34_L33I_YF] | 1.66 | 1.08 | 1.17 | 0.664 | 0.656 | 0.717 | 1.22 | 6.32 | 2.83 | 1.15 | 5.64 | 0.959 | 7.72
0.701 | 1 | 0.359 | SMAKFYASGIA [ACADSB_Y373_E376G_YF] | 0.738 | 0.344 | 0.485 | 0.428 | 0.561 | 0.369 | 0.636 | 0.461 | 0.469 | 0.677 | 0.464 | 0.51 | 0.352
0.707 | 0.538 | 0.424 | VLNKGYRMVVN [HINT1_Y94_G89V] | 0.557 | 0.362 | 0.343 | 0.392 | 0.396 | 0.311 | 0.539 | 0.383 | 0.368 | 0.433 | 0.339 | 0.361 | 0.326
0.971 | 0.879 | 0.825 | DHCNQYEQQKM [CHD7_Y75_Y72C] | 0.842 | 0.545 | 0.714 | 0.424 | 0.682 | 0.499 | 0.823 | 0.534 | 0.499 | 0.699 | 0.443 | 0.661 | 0.541
1.18 | 0.716 | 0.586 | HGEAVYSRDCV [XPC_Y676_R671H] | 0.697 | 0.473 | 0.51 | 0.621 | 0.687 | 0.664 | 0.819 | 3.49 | 2.75 | 0.786 | 0.89 | 0.66 | 3.78
0.98 | 0.739 | 1.04 | RGDCMYAPLLG [AR_Y269] | 0.898 | 7.23 | 8.4 | 3.08 | 1.83 | 4.16 | 0.885 | 8.2 | 10.9 | 0.743 | 10.4 | 5.89 | 5.61
1.37 | 1.07 | 0.701 | RDSQLYAVDFE [MRPS34_Y34_YF] | 1.49 | 1.04 | 0.869 | 0.53 | 0.788 | 0.728 | 1.58 | 0.993 | 0.908 | 1.09 | 1.9 | 0.876 | 1.35
0.638 | 0.782 | 0.547 | NGEDPYAGSTD [XRCC1_Y515] | 1.21 | 0.431 | 0.508 | 0.646 | 0.67 | 0.431 | 1.1 | 0.524 | 0.581 | 0.809 | 0.399 | 0.779 | 0.55
0.932 | 0.885 | 0.367 | SHSMRYFDTSV [HLA-C_Y31_A35S] | 0.581 | 0.482 | 0.448 | 0.47 | 0.463 | 0.37 | 0.576 | 0.432 | 0.393 | 0.543 | 0.386 | 0.455 | 0.432
0.887 | 0.608 | 0.56 | QRAADYYSQQM [GBP6_Y333] | 1.29 | 0.933 | 1.14 | 2.32 | 1.75 | 0.579 | 1.53 | 1.42 | 0.611 | 0.728 | 0.813 | 0.591 | 0.524
0.996 | 0.896 | 0.508 | HGDSAYHSQRH [ERBB3_Y1132_R1127H] | 1.2 | 0.63 | 0.479 | 0.808 | 0.425 | 0.276 | 1.22 | 0.327 | 0.648 | 1.03 | 0.789 | 1.32 | 0.824
0.807 | 0.64 | 0.878 | PEVRRYVLPLN [RPE65_Y368] | 1.41 | 1.3 | 0.811 | 0.606 | 1.3 | 0.893 | 1.45 | 0.597 | 0.916 | 1.2 | 0.92 | 1.44 | 0.804
1.05 | 0.707 | 0.485 | AQVDTYCRHNY [HLA-DRB1_Y107_A103Q] | 0.752 | 0.536 | 0.47 | 0.512 | 0.679 | 0.517 | 0.866 | 0.549 | 0.523 | 0.764 | 0.447 | 0.693 | 0.369
0.915 | 0.476 | 0.508 | RPQDGYRIVQH [PTPRT_Y1329] | 0.797 | 0.406 | 0.565 | 0.557 | 0.625 | 0.591 | 0.708 | 0.554 | 0.586 | 0.534 | 0.493 | 0.74 | 0.649
0.886 | 0.62 | 0.461 | IFLADCRIMEG [ALOX12B_Y318_Y318C_YF] | 1.33 | 0.803 | 0.664 | 0.654 | 1.02 | 0.594 | 1.48 | 0.579 | 0.662 | 1.2 | 0.5 | 0.894 | 0.525
0.788 | 0.676 | 0.625 | IFHENYNAGTY [CFI_Y421] | 0.804 | 0.656 | 0.585 | 0.557 | 0.588 | 1.01 | 1.02 | 0.664 | 0.717 | 0.783 | 0.533 | 0.603 | 0.655
0.663 | 0.536 | 0.572 | RARIRYAQEHD [NSD1_Y1987] | 1.12 | 0.727 | 1.19 | 0.689 | 0.625 | 0.737 | 0.885 | 0.757 | 0.85 | 0.691 | 0.627 | 0.706 | 0.636
0.912 | 0.725 | 0.624 | QNVADYMRCLM [RPL5_Y207_Y210C] | 1.68 | 1.03 | 0.801 | 0.753 | 0.969 | 0.797 | 1.62 | 0.729 | 0.652 | 1.37 | 0.42 | 0.911 | 0.444
0.797 | 0.634 | 0.488 | RGDVIYKGFED [NFU1_Y194_G189R] | 0.81 | 0.622 | 0.672 | 0.514 | 0.699 | 0.681 | 1.03 | 4.47 | 1.07 | 0.815 | 0.481 | 0.445 | 2.03

The remaining lines, values behind:

Sequence | SH2 binding enrichment (Grb2 SH2) | SH2 binding enrichment (SHP2-C SH2) | SH2 binding enrichment (c-Src SH2) | phosphorylation enrichment (AncSZ) | phosphorylation enrichment (EPHB1) | phosphorylation enrichment (EPHB2) | phosphorylation enrichment (FGFR1) | phosphorylation enrichment (FGFR3) | phosphorylation enrichment (Fer (mouse)) | phosphorylation enrichment (Fes) | phosphorylation enrichment (Fyn) | phosphorylation enrichment (Hck) | phosphorylation enrichment (Jak2) | phosphorylation enrichment (MERTK) | phosphorylation enrichment (c-Abl (mouse)) | phosphorylation enrichment (c-Src)
PELINCHQHNS [BTK_Y361_Y361C] | 1.01 | 0.919 | 0.641 | 0.938 | 0.676 | 0.9 | 0.682 | 0.7 | 0.56 | 1.04 | 0.297 | 0.544 | 0.971 | 0.712 | 0.876 | 0.69
DLVHPYVHKIL [SF3B1_Y570_R568H] | 0.937 | 0.983 | 0.522 | 0.717 | 0.468 | 0.51 | 0.457 | 0.567 | 0.497 | 0.841 | 0.495 | 0.432 | 1.03 | 0.435 | 0.655 | 0.402
KNNSIYVLANI [VNN1_Y134_V136L] | 1.14 | 1.67 | 0.796 | 1.17 | 0.793 | 0.668 | 0.947 | 1.08 | 2.7 | 1.24 | 1.14 | 1.15 | 1.16 | 1.95 | 1.05 | 1.58
TSFSGYRCHRH [NKAPL_Y94_Y96C_YF] | 1.01 | 0.901 | 0.661 | 0.703 | 0.576 | 0.486 | 0.552 | 0.45 | 0.464 | 0.727 | 0.419 | 0.469 | 0.718 | 0.469 | 0.562 | 0.414
TPIYPYLLPKS [PLD2_Y580_T577I] | 0.943 | 0.855 | 1.17 | 0.837 | 0.578 | 0.559 | 0.812 | 0.698 | 0.426 | 0.776 | 0.435 | 0.547 | 1.59 | 1.8 | 0.65 | 0.624
RLYARYFQGDL [PDK3_Y337] | 0.889 | 0.556 | 0.549 | 1.24 | 0.705 | 0.664 | 0.684 | 0.923 | 0.543 | 1.26 | 0.6 | 0.511 | 1.57 | 0.711 | 1.18 | 0.763
QRNEEYCLLDS [ITK_Y198_R193Q] | 0.924 | 0.775 | 0.599 | 1.7 | 1.11 | 0.995 | 1.74 | 1.37 | 0.862 | 2.35 | 0.735 | 0.707 | 1.85 | 0.861 | 1.67 | 0.963
KIVATYRLCSE [DNAH3_Y1586] | 0.685 | 0.778 | 0.512 | 1.06 | 0.631 | 0.626 | 0.571 | 0.664 | 0.487 | 1.28 | 0.463 | 0.725 | 1.02 | 0.565 | 0.714 | 0.535
LYSINYLHFGD [KDM4C_Y201_E206D] | 1.69 | 2.45 | 1.2 | 1.99 | 12.7 | 12.1 | 5.82 | 3.85 | 15.8 | 1.84 | 4.87 | 4.59 | 1.47 | 12.8 | 1.73 | 3.68
TTPGPHRSIYF [MPG_Y71_Y71H] | 0.71 | 0.484 | 0.503 | 0.569 | 0.355 | 0.444 | 0.579 | 0.526 | 0.396 | 0.577 | 0.359 | 0.411 | 0.357 | 0.479 | 0.538 | 0.458
NQNIGYKLGHR [KCNN3_Y268] | 1 | 0.782 | 0.481 | 0.402 | 0.324 | 0.303 | 0.339 | 0.358 | 0.322 | 0.49 | 0.361 | 0.396 | 0.391 | 0.344 | 0.313 | 0.398
PRRRFYVVACD [RNASE3_Y134_G130R] | 0.592 | 0.486 | 0.47 | 0.597 | 0.543 | 0.701 | 0.614 | 0.656 | 0.433 | 0.667 | 0.759 | 0.705 | 0.733 | 0.73 | 0.715 | 0.545
TMEDSYRKQVV [KRAS_Y40_I36M] | 0.728 | 0.48 | 0.356 | 0.69 | 0.556 | 0.367 | 0.366 | 0.595 | 0.403 | 0.774 | 0.273 | 0.425 | 0.663 | 0.411 | 0.594 | 0.38
ESDFPYSSSFE [SRPK2_Y427_T426P_YF] | 0.738 | 0.543 | 0.485 | 1.1 | 0.437 | 0.502 | 0.619 | 0.692 | 0.531 | 1.1 | 0.511 | 0.47 | 0.942 | 0.462 | 0.642 | 0.823
